Blank lines part the entries; values can stand above or below the binder they belong to.
Biological target: T1, human P-cadherin (CDH3) expressed on cancer cell lines HCT116, H1975 and CAL27 (human, UniProt P22223 108-829)
T1 construct: whole, on cells
Assay: flow cytometry on H1975, HCT116 and CAL27 cells, MFI fold over background
Source text: Human P-cadherin (CDH3)-expressing cancer cell lines, HCT116, H1975 and CAL27, were used to assess tumor antigen binding of multi-specific binding proteins having a P-cadherin (CDH3) binding site comprising a heavy chain variable domain sequence identical to SEQ ID NO:196 and a light chain variable domain sequence identical to SEQ ID NO:200 (D153 DB), or a P-cadherin (CDH3) binding site comprising a heavy chain variable domain sequence identical to SEQ ID NO:188 and a light chain variable domain sequence identical to SEQ ID NO:192 (TSP7 DB). Multi-specific binding proteins or corresponding monoclonal antibodies (mAb) having the same P-cadherin (CDH3) binding site were diluted and incubated with the cells. Binding was detected using a fluorophore conjugated anti-human IgG secondary antibody. Cells were analyzed by flow cytometry and binding was expressed as mean fluorescence intensity (MFI) normalized to human recombinant IgG1 stained controls to obtain fold over background (FOB) values.

T1 sequence (P22223 108-829): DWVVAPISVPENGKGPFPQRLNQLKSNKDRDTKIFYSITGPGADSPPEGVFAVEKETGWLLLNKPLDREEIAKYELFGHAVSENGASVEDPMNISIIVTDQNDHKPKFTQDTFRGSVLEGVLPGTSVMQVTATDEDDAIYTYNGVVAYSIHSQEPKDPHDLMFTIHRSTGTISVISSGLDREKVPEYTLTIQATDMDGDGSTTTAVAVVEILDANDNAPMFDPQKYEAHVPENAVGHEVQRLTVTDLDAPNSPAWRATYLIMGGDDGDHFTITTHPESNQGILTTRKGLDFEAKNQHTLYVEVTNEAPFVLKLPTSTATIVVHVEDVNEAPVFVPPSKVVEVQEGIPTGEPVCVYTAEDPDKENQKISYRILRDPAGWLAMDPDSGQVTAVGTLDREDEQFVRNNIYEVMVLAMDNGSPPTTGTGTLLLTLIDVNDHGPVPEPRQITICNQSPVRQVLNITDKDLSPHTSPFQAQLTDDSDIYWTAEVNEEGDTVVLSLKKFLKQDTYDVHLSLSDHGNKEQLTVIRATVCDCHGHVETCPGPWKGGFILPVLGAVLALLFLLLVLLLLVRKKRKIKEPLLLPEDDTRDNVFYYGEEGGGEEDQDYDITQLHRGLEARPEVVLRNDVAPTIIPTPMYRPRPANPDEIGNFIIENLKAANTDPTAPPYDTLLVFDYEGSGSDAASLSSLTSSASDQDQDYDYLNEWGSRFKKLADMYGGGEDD

- binding result: binds
B1: anti-P-cadherin mAb (TSP7 wt mAb) (antibody, V domains shown)
VH: QVQLQESGPELVKPGASVKMSCKASGYSFTAYNMHWVKQSHGKSLEWIGFIDPYSGIITYNQTFKGKATLTVDKSSSTAYMQLNSLTSEDSAVYYCARRGYYDGGFDYWGQGTTLTVSS
VL: DIQMTQTTSSLSASLGDRVTISCRASQDITNYLNWYQQKPDGTVKLLIYYTSRLHSGVPSRFSGSGSGTDYSLTISNLEQEDIATYFCQQDSKHPRTFGGGTKLEIK
notes: it was detected with an anti-human IgG secondary antibody; also called TSP7 mAb

- binding result: binds
B2: anti-P-cadherin mAb (D153 wt mAb) (antibody, V domains shown)
VH: EVQLVQSGAEVKKPGASVKVSCKASGYTFTSYGISWVRQAPGQGLEWMGWISAYNGNTNYAQKLQGRVTMTTDTSTSTAYMELRSLRSDDTAVYYCATIDTANAFGIWGQGTMVTVSS
VL: QSVLTQPPSVSAAPGQKVTISCSGSSSNIGNNYVSWYQQLPGTAPKLLIYDNNKRPSGIPDRFSGSKSGTSATLGITGLQTGDEADYYCGTWDSSLSGVVFGGGTKLTVL
notes: it was detected with an anti-human IgG secondary antibody; also called D153 mAb
